Measurements taken from patent US20230002481A1 (Chugai, published 2023).

Biological target: T1, recombinant cyno C1r2s2 His/Flag tetramer (cynomolgus monkey, limits assumed)
T1 construct: Heterotetramer of two C1r-His and two C1s-Flag chains, co-expressed in FreeStyle293-F cells; also called cyno C1r2s2s
T1 chain 1: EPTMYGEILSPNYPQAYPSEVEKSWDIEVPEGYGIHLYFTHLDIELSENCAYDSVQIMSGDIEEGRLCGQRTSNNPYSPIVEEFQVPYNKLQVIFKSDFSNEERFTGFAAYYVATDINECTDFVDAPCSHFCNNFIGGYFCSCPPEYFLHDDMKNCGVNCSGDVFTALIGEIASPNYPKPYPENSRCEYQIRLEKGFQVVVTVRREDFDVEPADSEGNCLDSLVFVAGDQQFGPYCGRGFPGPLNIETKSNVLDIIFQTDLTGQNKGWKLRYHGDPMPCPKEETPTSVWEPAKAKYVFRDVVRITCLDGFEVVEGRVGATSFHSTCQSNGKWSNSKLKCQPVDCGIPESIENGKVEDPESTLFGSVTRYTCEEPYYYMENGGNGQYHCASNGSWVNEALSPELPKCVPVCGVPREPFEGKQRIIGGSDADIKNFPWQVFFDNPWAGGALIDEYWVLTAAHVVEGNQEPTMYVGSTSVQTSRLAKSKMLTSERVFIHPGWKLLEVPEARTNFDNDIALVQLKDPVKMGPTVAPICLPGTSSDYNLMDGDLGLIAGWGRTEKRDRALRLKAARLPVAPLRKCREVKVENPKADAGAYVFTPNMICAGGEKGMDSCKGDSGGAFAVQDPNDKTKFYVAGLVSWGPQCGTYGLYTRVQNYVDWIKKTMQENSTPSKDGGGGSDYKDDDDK
T1 chain 2: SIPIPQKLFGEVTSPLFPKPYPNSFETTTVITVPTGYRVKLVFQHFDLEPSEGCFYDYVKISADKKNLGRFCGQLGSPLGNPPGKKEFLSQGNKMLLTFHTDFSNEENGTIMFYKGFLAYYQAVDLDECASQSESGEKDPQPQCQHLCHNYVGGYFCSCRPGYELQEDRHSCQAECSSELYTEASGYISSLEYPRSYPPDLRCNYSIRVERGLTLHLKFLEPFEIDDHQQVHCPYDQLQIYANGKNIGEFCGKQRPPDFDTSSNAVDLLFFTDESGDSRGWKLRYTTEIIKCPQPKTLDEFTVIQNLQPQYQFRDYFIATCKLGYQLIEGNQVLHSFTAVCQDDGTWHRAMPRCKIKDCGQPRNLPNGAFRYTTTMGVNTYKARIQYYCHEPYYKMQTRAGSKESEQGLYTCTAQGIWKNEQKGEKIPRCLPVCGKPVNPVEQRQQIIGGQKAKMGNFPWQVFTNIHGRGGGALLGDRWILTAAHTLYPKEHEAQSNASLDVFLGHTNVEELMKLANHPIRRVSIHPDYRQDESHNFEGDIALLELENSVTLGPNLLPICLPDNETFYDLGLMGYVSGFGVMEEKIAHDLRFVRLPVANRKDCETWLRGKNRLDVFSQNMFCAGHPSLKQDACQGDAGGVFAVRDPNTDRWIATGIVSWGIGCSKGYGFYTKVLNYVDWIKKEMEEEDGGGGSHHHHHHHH
Assay: SPR (Biacore), antibody captured on ProA/G, antigen as analyte, 37 C, pH5.8, 1.2 mM CaCl2; pH 5.8
Description: The kinetic parameters of anti-C1s antibodies against recombinant human C1s (as described in PCT/JP2018/042054), human C1r2s2, and cyno C1r2s2 His/Flag (also referred as cyno C1r2s2 in the Table and Figures) were assessed at pH7.4 and pH5.8, at 37 degrees C. using BIACORE (registered trademark) T200 instrument (GE Healthcare) or BIACORE 4000 (GE Healthcare). ProAG (Pierce) was immobilized onto a CM4 sensorchip using amine coupling kit (GE Healthcare) according to the recommended settings by GE Healthcare. Antibodies and analytes were diluted into the respective running buffers, ACES pH7.4 and pH5.8 (20 mM ACES, 150 mM NaCl, 1.2 mM CaCl₂, 1 mg/ml BSA, 1 mg/ml CMD, 0.05% Tween 20, 0.005 w/v % NaN₃). Each antibody was captured onto the sensor surface by ProA/G. Antibody capture levels were typically 100-200 resonance units (RU). Then, recombinant C1s was injected at concentrations of 25 and 50 nM followed by dissociation at pH7.4 and pH5.8. The surface was regenerated using 10 mM Glycine-HCl, pH1.5. Kinetic parameters at neutral pH conditions and acidic conditions were determined by fitting the sensorgrams with 1:1 binding model using BIACORE (registered trademark) T200 Evaluation software, version 2.0 (GE Healthcare) or BIACORE 4000 Evaluation software. The dissociation rate at pH5.8 (after dissociation at pH7.4, indicated as pH5.8* in TABLE 2) was determined by processing and fitting data using Scrubber 2.0 (BioLogic Software) curve fitting software. The association rate (ka), dissociation rate (kd), binding affinity (KD) at pH7.4 and pH5.8 condition, and dissociation rate (kd) at pH5.8* condition of the antibodies are listed in TABLE 2. Some kinetic parameters of COS0098pHv1 in acidic condition were not correctly calculated because of its weak binding response.
Also, to observe the cross-reactivity of anti-C1s antibodies against human C1r2s2 and cyno C1r2s2 (cyno C1r2s2 His/Flag), BIACORE (registered trademark) kinetics analysis was performed.

B1: COS0098bb (antibody, V domains shown)
VH: QSVEESGGRLVTPGTPLTLTCTVSGFSLTKYTVSWVRQAPGKGLEWIGIINTGGSAYYATWAKGRFTFSKTSTTVDLQITSPTTEDTATYFCARGNGDTDYTNLWGPGTLVTVSS
VL: QVLTQTPSSVSEPVGGTVTINCQASENIYSALAWYQQKPGQPPKLLIYGASNLESGVPSRFKGSGSGTQFTLTISDLECADAATYYCQQYYFTSSTFGGGTKVEIK
notes: Anti-C1s rabbit antibody, parent of COS0098pHv1; the antibody was captured by ProA/G; also called anti-C1s antibody COS0098bb
  Kd: 894 pM
  koff: 0.00105 s⁻¹
  kon: 1.17e+06 M⁻¹ s⁻¹
